From PMC7771667, “Discovery of potent and specific inhibitors targeting the active site of MMP-9 from the engineered SPINK2 library” (PLoS ONE, 2020)

Assays:
active MMP-9_Cat-H6 = target: T1, active MMP-9_Cat-H6 (human, UniProt P14780 107-449); assay: SEC; MMP-9 (25 μM) incubated with TIMP-1 or M91005 (75 μM; molar ratio 3:1) in PBS for 1 h at 4°C; ACQUITY UPLC BEH200 column in PBS; shift of the retention time; conditions: both partners purified
T1 construct: human MMP-9 catalytic domain with the Fn-like domain, without the HPX domain; pro-form residues 20-449; not shown: His6, C-terminal, kept

MMP-9_Cat_E402Q-H6 = target: T2, MMP-9_Cat_E402Q-H6 (human, UniProt P14780 107-449, E402Q); assay: as above; conditions: both partners purified
T2 construct: human MMP-9 catalytic domain with the Fn-like domain, without the HPX domain; pro-form residues 20-449; also called pro-peptide-removed E402Q mutant; active-site mutant; source: HEK293F, transiently expressed, purified (HisTrap excel), pro-peptide removed with MMP-3; not shown: His6, C-terminal, kept
T2 sequence (P14780 107-449 E402Q): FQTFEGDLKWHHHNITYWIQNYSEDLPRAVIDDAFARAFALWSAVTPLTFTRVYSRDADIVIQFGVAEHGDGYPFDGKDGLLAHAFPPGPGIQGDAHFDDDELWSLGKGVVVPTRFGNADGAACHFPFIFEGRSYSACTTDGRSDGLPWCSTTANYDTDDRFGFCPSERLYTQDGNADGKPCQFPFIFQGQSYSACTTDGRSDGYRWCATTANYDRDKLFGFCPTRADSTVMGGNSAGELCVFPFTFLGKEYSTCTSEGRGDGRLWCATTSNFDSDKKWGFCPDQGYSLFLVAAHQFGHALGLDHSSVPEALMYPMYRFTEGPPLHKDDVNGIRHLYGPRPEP

T1 sequence (P14780 107-449): as the sequence (P14780 107-449 E402Q) above, with Q296E counted along it

- binding result (active MMP-9_Cat-H6): binds
- binding result (MMP-9_Cat_E402Q-H6): binds
B1: Human TIMP-1 (natural protein)
chain: not shown
notes: signal peptide in the construct; human TIMP-1 residues 1-207
